Measurements as given in US20230331827A1 (MAXION THERAPEUTICS, published 2023).

B1: KB_A12_cMET_E11 (scFv, V domains shown)
VH: EVQLVESGGGLVRPGGSLRLSCAASGFTFSSYAMSWVRQAPGKGLEWVSAISGSGGSTYYADSVKGRFTISRDNTKNSLYLQMTSLRADDTAFYYCVKDFGPGYGTGWFDYWGPGTLVTVSS
VL: AVNWYQQLPGKAPKLLIYAAGRCAKKSGTGRCKQDSDCLAGCVCGPNGFCGANSGVSDRFSAAKSGTSASLAINGLRSEDEADYYCAAWDDSLNGYVFGTGTKLTVLG
B2: KB_A12_cMET_F10 (scFv, V domains shown)
VH: EVQLVESGGGLVRPGGSLRLSCAASGFTFSSYAMSWVRQAPGKGLEWVSAISGSGGSTYYADSVKGRFTISRDNTKNSLYLQMTSLRADDTAFYYCVKDFGPGYGTGWFDYWGPGTLVTVSS
VL: AVNWYQQLPGKAPKLLIYAAGRCRSLMSGTGRCKQDSDCLAGCVCGPNGFCGANSGVSDRFSAAKSGTSASLAINGLRSEDEADYYCAAWDDSLNGYVFGTGTKLTVLG
B3: KB_A12_cMET_E01 (scFv, V domains shown)
VH: EVQLVESGGGLVRPGGSLRLSCAASGFTFSSYAMSWVRQAPGKGLEWVSAISGSGGSTYYADSVKGRFTISRDNTKNSLYLQMTSLRADDTAFYYCVKDFGPGYGTGWFDYWGPGTLVTVSS
VL: AVNWYQQLPGKAPKLLIYAAGRCNLTSGTGRCKQDSDCLAGCVCGPNGFCGANSGVSDRFSAAKSGTSASLAINGLRSEDEADYYCAAWDDSLNGYVFGTGTKLTVLG
B4: KB_A12_cMET_E05 (scFv, V domains shown)
VH: EVQLVESGGGLVRPGGSLRLSCAASGFTFSSYAMSWVRQAPGKGLEWVSAISGSGGSTYYADSVKGRFTISRDNTKNSLYLQMTSLRADDTAFYYCVKDFGPGYGTGWFDYWGPGTLVTVSS
VL: AVNWYQQLPGKAPKLLIYAAGRCDRKAGTGRCKQDSDCLAGCVCGPNGFCGANSGVSDRFSAAKSGTSASLAINGLRSEDEADYYCAAWDDSLNGYVFGTGTKLTVLG
B5: KB_A12_cMET_E02 (scFv, V domains shown)
VH: EVQLVESGGGLVRPGGSLRLSCAASGFTFSSYAMSWVRQAPGKGLEWVSAISGSGGSTYYADSVKGRFTISRDNTKNSLYLQMTSLRADDTAFYYCVKDFGPGYGTGWFDYWGPGTLVTVSS
VL: AVNWYQQLPGKAPKLLIYAAGRCRKKSGANRCKQDSDCLAGCVCGPNGFCGANSGVSDRFSAAKSGTSASLAINGLRSEDEADYYCAAWDDSLNGYVFGTGTKLTVLG
B6: KB_A12_cMET_G10 (scFv, V domains shown)
VH: EVQLVESGGGLVRPGGSLRLSCAASGFTFSSYAMSWVRQAPGKGLEWVSAISGSGGSTYYADSVKGRFTISRDNTKNSLYLQMTSLRADDTAFYYCVKDFGPGYGTGWFDYWGPGTLVTVSS
VL: AVNWYQQLPGKAPKLLIYAAGRCEKHSGTGRCKQDSDCLAGCVCGPNGFCGANSGVSDRFSAAKSGTSASLAINGLRSEDEADYYCAAWDDSLNGYVFGTGTKLTVLG
B7: KB_A12_cMET_F05 (scFv, V domains shown)
VH: EVQLVESGGGLVRPGGSLRLSCAASGFTFSSYAMSWVRQAPGKGLEWVSAISGSGGSTYYADSVKGRFTISRDNTKNSLYLQMTSLRADDTAFYYCVKDFGPGYGTGWFDYWGPGTLVTVSS
VL: AVNWYQQLPGKAPKLLIYAAGRCKRLMSGAGRCKQDSDCLAGCVCGPNGFCGANSGVSDRFSAAKSGTSASLAINGLRSEDEADYYCAAWDDSLNGYVFGTGTKLTVLG
B8: KB_A12_cMET_G07 (scFv, V domains shown)
VH: EVQLVESGGGLVRPGGSLRLSCAASGFTFSSYAMSWVRQAPGKGLEWVSAISGSGGSTYYADSVKGRFTISRDNTKNSLYLQMTSLRADDTAFYYCVKDFGPGYGTGWFDYWGPGTLVTVSS
VL: AVNWYQQLPGKAPKLLIYAAGRCRASSGTGRCKQDSDCLAGCVCGPNGFCGANSGVSDRFSAAKSGTSASLAINGLRSEDEADYYCAAWDDSLNGYVFGTGTKLTVLG
B9: KB_A12_cMET_F02 (scFv, V domains shown)
VH: EVQLVESGGGLVRPGGSLRLSCAASGFTFSSYAMSWVRQAPGKGLEWVSAISGSGGSTYYADSVKGRFTISRDNTKNSLYLQMTSLRADDTAFYYCVKDFGPGYGTGWFDYWGPGTLVTVSS
VL: AVNWYQQLPGKAPKLLIYAAGRCGRASGTGRCKQDSDCLAGCVCGPNGFCGANSGVSDRFSAAKSGTSASLAINGLRSEDEADYYCAAWDDSLNGYVFGTGTKLTVLG
B10: KB_A12_cMET_E07 (scFv, V domains shown)
VH: EVQLVESGGGLVRPGGSLRLSCAASGFTFSSYAMSWVRQAPGKGLEWVSAISGSGGSTYYADSVKGRFTISRDNTKNSLYLQMTSLRADDTAFYYCVKDFGPGYGTGWFDYWGPGTLVTVSS
VL: AVNWYQQLPGKAPKLLIYAAGRCPKRHTGTGRCKQDSDCLAGCVCGPNGFCGANSGVSDRFSAAKSGTSASLAINGLRSEDEADYYCAAWDDSLNGYVFGTGTKLTVLG
B11: KB_A12_cMET_G06 (scFv, V domains shown)
VH: EVQLVESGGGLVRPGGSLRLSCAASGFTFSSYAMSWVRQAPGKGLEWVSAISGSGGSTYYADSVKGRFTISRDNTKNSLYLQMTSLRADDTAFYYCVKDFGPGYGTGWFDYWGPGTLVTVSS
VL: AVNWYQQLPGKAPKLLIYAAGRCNKSGGTGRCKQDSDCLAGCVCGPNGFCGANSGVSDRFSAAKSGTSASLAINGLRSEDEADYYCAAWDDSLNGYVFGTGTKLTVLG
B12: KB_A12_cMET_E12 (scFv, V domains shown)
VH: EVQLVESGGGLVRPGGSLRLSCAASGFTFSSYAMSWVRQAPGKGLEWVSAISGSGGSTYYADSVKGRFTISRDNTKNSLYLQMTSLRADDTAFYYCVKDFGPGYGTGWFDYWGPGTLVTVSS
VL: AVNWYQQLPGKAPKLLIYAAGRCAKRSGTGRCKQDSDCLAGCVCGPNGFCGANSGVSDRFSAAKSGTSASLAINGLRSEDEADYYCAAWDDSLNGYVFGTGTKLTVLG
B13: KB_A12_cMET_F06 (scFv, V domains shown)
VH: EVQLVESGGGLVRPGGSLRLSCAASGFTFSSYAMSWVRQAPGKGLEWVSAISGSGGSTYYADSVKGRFTISRDNTKNSLYLQMTSLRADDTAFYYCVKDFGPGYGTGWFDYWGPGTLVTVSS
VL: AVNWYQQLPGKAPKLLIYAAGRCPHQTGTGRCKQDSDCLAGCVCGPNGFCGANSGVSDRFSAAKSGTSASLAINGLRSEDEADYYCAAWDDSLNGYVFGTGTKLTVLG
B14: KB_A12_cMET_H04 (scFv, V domains shown)
VH: EVQLVESGGGLVRPGGSLRLSCAASGFTFSSYAMSWVRQAPGKGLEWVSAISGSGGSTYYADSVKGRFTISRDNTKNSLYLQMTSLRADDTAFYYCVKDFGPGYGTGWFDYWGPGTLVTVSS
VL: AVNWYQQLPGKAPKLLIYAAGRCPQMTGTGRCKQDSDCLAGCVCGPNGFCGANSGVSDRFSAAKSGTSASLAINGLRSEDEADYYCAAWDDSLNGYVFGTGTKLTVLG
B15: KB_A12_cMET_H03 (scFv, V domains shown)
VH: EVQLVESGGGLVRPGGSLRLSCAASGFTFSSYAMSWVRQAPGKGLEWVSAISGSGGSTYYADSVKGRFTISRDNTKNSLYLQMTSLRADDTAFYYCVKDFGPGYGTGWFDYWGPGTLVTVSS
VL: AVNWYQQLPGKAPKLLIYAAGRCRGMTGVGRCKQDSDCLAGCVCGPNGFCGANSGVSDRFSAAKSGTSASLAINGLRSEDEADYYCAAWDDSLNGYVFGTGTKLTVLG
B16: KB_A12_cMET_G01 (scFv, V domains shown)
VH: EVQLVESGGGLVRPGGSLRLSCAASGFTFSSYAMSWVRQAPGKGLEWVSAISGSGGSTYYADSVKGRFTISRDNTKNSLYLQMTSLRADDTAFYYCVKDFGPGYGTGWFDYWGPGTLVTVSS
VL: AVNWYQQLPGKAPKLLIYAAGRCQRQSGTGRCKQDSDCLAGCVCGPNGFCGANSGVSDRFSAAKSGTSASLAINGLRSEDEADYYCAAWDDSLNGYVFGTGTKLTVLG
B17: KB_A12_cMET_H02 (scFv, V domains shown)
VH: EVQLVESGGGLVRPGGSLRLSCAASGFTFSSYAMSWVRQAPGKGLEWVSAISGSGGSTYYADSVKGRFTISRDNTKNSLYLQMTSLRADDTAFYYCVKDFGPGYGTGWFDYWGPGTLVTVSS
VL: AVNWYQQLPGKAPKLLIYAAGRCAKRTGTGRCKQDSDCLAGCVCGPNGFCGANSGVSDRFSAAKSGTSASLAINGLRSEDEADYYCAAWDDSLNGYVFGTGTKLTVLG
B18: KB_A12_cMET_F12 (scFv, V domains shown)
VH: EVQLVESGGGLVRPGGSLRLSCAASGFTFSSYAMSWVRQAPGKGLEWVSAISGSGGSTYYADSVKGRFTISRDNTKNSLYLQMTSLRADDTAFYYCVKDFGPGYGTGWFDYWGPGTLVTVSS
VL: AVNWYQQLPGKAPKLLIYAAGRCKAQSGSGRCKQDSDCLAGCVCGPNGFCGANSGVSDRFSAAKSGTSASLAINGLRSEDEADYYCAAWDDSLNGYVFGTGTKLTVLG
B19: KB_A12_cMET_E04 (scFv, V domains shown)
VH: EVQLVESGGGLVRPGGSLRLSCAASGFTFSSYAMSWVRQAPGKGLEWVSAISGSGGSTYYADSVKGRFTISRDNTKNSLYLQMTSLRADDTAFYYCVKDFGPGYGTGWFDYWGPGTLVTVSS
VL: AVNWYQQLPGKAPKLLIYAAGRCGHLSGTGRCKQDSDCLAGCVCGPNGFCGANSGVSDRFSAAKSGTSASLAINGLRSEDEADYYCAAWDDSLNGYVFGTGTKLTVLG
B20: KB_A12_cMET_G08 (scFv, V domains shown)
VH: EVQLVESGGGLVRPGGSLRLSCAASGFTFSSYAMSWVRQAPGKGLEWVSAISGSGGSTYYADSVKGRFTISRDNTKNSLYLQMTSLRADDTAFYYCVKDFGPGYGTGWFDYWGPGTLVTVSS
VL: AVNWYQQLPGKAPKLLIYAAGRCARLSGSGRCKQDSDCLAGCVCGPNGFCGANSGVSDRFSAAKSGTSASLAINGLRSEDEADYYCAAWDDSLNGYVFGTGTKLTVLG
B21: KB_A12_cMET_H01 (scFv, V domains shown)
VH: EVQLVESGGGLVRPGGSLRLSCAASGFTFSSYAMSWVRQAPGKGLEWVSAISGSGGSTYYADSVKGRFTISRDNTKNSLYLQMTSLRADDTAFYYCVKDFGPGYGTGWFDYWGPGTLVTVSS
VL: AVNWYQQLPGKAPKLLIYAAGRCHRMSGTGRCKQDSDCLAGCVCGPNGFCGANSGVSDRFSAAKSGTSASLAINGLRSEDEADYYCAAWDDSLNGYVFGTGTKLTVLG
B22: KB_A12_cMET_H05 (scFv, V domains shown)
VH: EVQLVESGGGLVRPGGSLRLSCAASGFTFSSYAMSWVRQAPGKGLEWVSAISGSGGSTYYADSVKGRFTISRDNTKNSLYLQMTSLRADDTAFYYCVKDFGPGYGTGWFDYWGPGTLVTVSS
VL: AVNWYQQLPGKAPKLLIYAAGRCNRASGAGRCKQDSDCLAGCVCGPNGFCGANSGVSDRFSAAKSGTSASLAINGLRSEDEADYYCAAWDDSLNGYVFGTGTKLTVLG

These binders were tested against human cMET (human, UniProt P08581 25-932) (assay: phage TRF on cMET).
Chain of human cMET (P08581 25-932 limits assumed): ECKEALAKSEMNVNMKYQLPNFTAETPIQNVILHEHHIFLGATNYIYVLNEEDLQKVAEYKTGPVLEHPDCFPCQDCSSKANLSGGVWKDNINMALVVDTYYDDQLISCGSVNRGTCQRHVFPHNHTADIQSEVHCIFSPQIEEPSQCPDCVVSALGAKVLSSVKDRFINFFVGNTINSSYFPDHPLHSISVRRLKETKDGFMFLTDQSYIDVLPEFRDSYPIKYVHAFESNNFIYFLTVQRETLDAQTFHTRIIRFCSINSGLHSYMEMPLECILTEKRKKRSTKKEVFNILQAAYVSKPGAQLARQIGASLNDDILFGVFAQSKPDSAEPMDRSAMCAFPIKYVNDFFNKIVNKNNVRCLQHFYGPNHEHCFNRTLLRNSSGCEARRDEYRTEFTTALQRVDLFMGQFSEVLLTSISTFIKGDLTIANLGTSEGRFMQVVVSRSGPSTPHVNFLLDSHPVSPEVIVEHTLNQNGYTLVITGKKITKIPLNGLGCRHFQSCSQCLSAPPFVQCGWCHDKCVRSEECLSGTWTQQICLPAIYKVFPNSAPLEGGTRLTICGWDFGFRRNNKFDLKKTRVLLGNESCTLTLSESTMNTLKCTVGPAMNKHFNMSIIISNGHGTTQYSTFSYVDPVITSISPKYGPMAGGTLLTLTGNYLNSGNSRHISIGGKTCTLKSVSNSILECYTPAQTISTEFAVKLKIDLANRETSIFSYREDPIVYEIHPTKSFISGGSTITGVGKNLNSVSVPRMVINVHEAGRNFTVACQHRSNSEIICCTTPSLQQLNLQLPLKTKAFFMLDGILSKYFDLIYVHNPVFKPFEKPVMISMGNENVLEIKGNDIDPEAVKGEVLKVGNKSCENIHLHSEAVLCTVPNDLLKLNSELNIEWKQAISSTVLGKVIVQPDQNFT

Binder | TRF signal
B1 | 158000
B2 | 51300
B3 | 22400
B4 | 116000
B5 | 9480
B6 | 64800
B7 | 59600
B8 | 58000
B9 | 98500
B10 | 95300
B11 | 62100
B12 | 95900
B13 | 56200
B14 | 113000
B15 | 54200
B16 | 98900
B17 | 35400
B18 | 119000
B19 | 41300
B20 | 27900
B21 | 132000
B22 | 153000
